# Bridge positions count the residues as written; N and C are the ends. Square brackets hold non-standard residues; d marks the D form. Primed or numbered codes have the meaning given here. Ends that are not written are not given here. Peptide text beside a SMILES is read from it. * marks the point of attachment. X1 = O=C(CCC1=[N+]2C(=Cc3ccc(-c4ccc[nH]4)n3[B-]2(F)F)C=C1)*; PEG4′ = tetra(ethylene glycol) spacer; PEG4 = NCCOCCOCCOCCOCCC(=O)O; PEG4″ = not defined here
# T1: hSPSB2^SPRY (Homo sapiens, UniProt Q99619)
# T1 construct: Human His6-SPSB2^SPRY (86–219) was expressed as a fusion construct; made in house; host or cells: Escherichia coli BL21(DE3)
# T1 sequence (Q99619 26-219 limits assumed): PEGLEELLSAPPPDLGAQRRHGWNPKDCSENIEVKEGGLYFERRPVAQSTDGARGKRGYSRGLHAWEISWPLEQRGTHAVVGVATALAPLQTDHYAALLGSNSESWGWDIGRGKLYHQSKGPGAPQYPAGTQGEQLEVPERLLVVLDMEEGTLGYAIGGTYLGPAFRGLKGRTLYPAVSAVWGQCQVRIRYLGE
# T2: C-terminally Nanoluc-tagged human full length SPSB2 (human, UniProt Q99619 1-263)
# T2 construct: also called SPRY domain-containing SOCS box protein 2; source: HCT116, transfected, in intact cells; not shown: NanoLuc, C-terminal, kept
# T2 sequence (looked up): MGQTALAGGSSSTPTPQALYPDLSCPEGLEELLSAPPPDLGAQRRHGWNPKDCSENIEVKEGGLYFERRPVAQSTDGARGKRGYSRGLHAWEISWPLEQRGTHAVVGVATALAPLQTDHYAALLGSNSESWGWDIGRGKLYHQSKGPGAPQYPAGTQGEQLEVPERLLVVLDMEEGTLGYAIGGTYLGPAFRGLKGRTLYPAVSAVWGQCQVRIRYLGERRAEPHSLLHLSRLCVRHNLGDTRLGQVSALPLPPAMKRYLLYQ
# T3: C-terminally Nanoluc-tagged human full length SPSB2 (human, UniProt Q99619 1-263)
# T3 construct: source: HCT116, transfected (FuGENE HD), in intact or digitonin-permeabilized cells; not shown: NanoLuc, C-terminal, kept
# T3 sequence (looked up): T2 sequence (looked up)
# B1: cyclic TAT peptide (PEG4-CYGRKKRRQRRRCGSGVDINNN) (peptide)
# peptide: [PEG4′]CYGRKKRRQRRRCGSGVDINNN
# modifications: disulfide 2-14
# notes: also called cyclic TAT peptide variant; source: synthetic peptide (custom synthesized by Synpel Chemical, GeneCust and GenScript Biotech)
# B2: Cyclic TAT tracer (peptide)
# peptide: {BODIPY 576/589-PEG4″}-CYGRKKRRQRRRCGSGVDINNN
# modifications: disulfide 1-13
# notes: also called fluorophore-tagged cyclic TAT tracer; source: synthetic peptide (custom synthesized by Synpel Chemical, GeneCust and GenScript Biotech)
# Experiments:
# [1] = target: T1, hSPSB2^SPRY; assay: Differential scanning fluorimetry (thermal shift); type: binding; settings: DSF, 50 μM peptide, 5 μM His-hSPSB2^SPRY, 30 mM HEPES pH 7.5, 5% DMSO, mean ± SD (n = 4); for Mean Tm: DMSO control 43.2 ± 0.1
# Protocol: For peptide screening, 50 μM peptide was added to 5 μM His-hSPSB2^SPRY diluted in buffer containing 30 mM HEPES pH 7.5, 100 mM NaCl, 1 mM TCEP, 5x SYPRO Orange and 5% DMSO as quadruplicates. Thermal shift analyses were carried out using a QuantStudio 5 Real-Time PCR System (Applied Biosystems) with a temperature gradient ranging from 25 to 95 °C at an increase of 0.05 °C/s. Data analysis was performed by fitting a Boltzmann sigmoidal curve to the raw values using the Protein Thermal Shift software (Applied Biosystems).
# [2] = system: HCT116 cells; assay: CellTiter-Glo cytotoxicity assay; type: cell-based; settings: 0.39 μM to 50 μM, 2 h incubation, 37 °C, n = 6
# Protocol: For cytotoxicity measurements, 10 μL HCT116 cells in Dulbecco’s Modified Eagle Medium (DMEM) were seeded at 2*10^5 cells/mL into a white 384-well-flat-bottom plate. […] Ten μL CellTiter-Glo 2.0 Reagent (Promega) was added to each well, followed by an incubation of 10 min at RT. Luminescence was measured, using a PheraSTAR FSX plate reader. Data was normalized to cells treated with 1% DMSO (100% survival control) and digitonin (0% survival control), then plotted using GraphPad Prism version 8.0.1.
# [3] = target: T1, hSPSB2^SPRY; assay: Surface plasmon resonance single cycle kinetics; type: binding; settings: immobilized His-hSPSB2^SPRY; for SPR binding behaviour (qualitative): no KD determined; for koff / kon: mean ± SD (n = 3); for koff: read-out: SPR koff (dissociation rate constant); for kon: read-out: SPR kon (association rate constant)
# Protocol: Surface Plasmon Resonance experiments were conducted on a Biacore T200 instrument with a Series S Sensor Chip CM5 (Cytiva) and 10 mM HEPES pH 7.5, 150 mM NaCl, 0.5 mM TCEP, 0.05% Tween20 and 2% DMSO for the running buffer. His-hSPSB2^SPRY was diluted to 5 μg/mL in Acetate pH 5.5 and immobilized at 10 μL/min to reach 400–700 RU response levels on Flow-channel (FC) 2–4 for triplicates. Immobilization was performed via standard amine coupling procedure by injecting a mixture of 483 mM EDC and […] for activation with a subsequent injection of 1 M ethanolamine for deactivation. FC1 was used as a reference surface without protein-injection. Kinetic titration experiments were performed using a single-cycle kinetics procedure, with five peptide concentrations (0.8 nM to 1 μM) injected for 150 s each at a flow rate of 30 μL/min, followed by a dissociation phase of 600 s. After each peptide titration, multiple buffer injections were performed to reach a stable baseline. Solvent correction and blank injections were also included. After referencing, blank subtraction, and solvent correction, the data were analyzed using the Biacore T200 evaluation software. Sensorgrams with overlaid fit were replotted using GraphPad Prism version 8.0.1.
# [4] = target: Human His6-SPSB2^SPRY (86–219) (human) (UniProt Q99619); assay: SPR
# [5] = target: Human His6-SPSB2^SPRY (86–219) (human) (UniProt Q99619); assay: differential scanning fluorimetry
# [6] = target: T2, C-terminally Nanoluc-tagged human full …; assay: FRET or BRET; NanoBRET displacement in intact HCT116 cells transfected with SPSB2-NanoLuc; 30 nM cyclic TAT tracer, cyclic TAT peptide titrated 6 nM to 50 uM, triplicates; settings: one partner purified
# [7] = target: T2, C-terminally Nanoluc-tagged human full …; assay: FRET or BRET; NanoBRET displacement in intact HCT116 cells transfected with SPSB2-NanoLuc; 20 nM cyclic TAT tracer, cyclic TAT peptide titrated 6 nM to 50 uM, triplicates (biological replicate); settings: one partner purified
# [8] = target: Human His6-SPSB2^SPRY (86–219) (human) (UniProt Q99619); assay: differential scanning fluorimetry; 50 μM peptide added to 5 μM His-hSPSB2^SPRY; 30 mM HEPES pH 7.5, 100 mM NaCl, 1 mM TCEP, 5x SYPRO Orange, 5% DMSO; 25 to 95 °C; quadruplicates
# [9] = target: T3, C-terminally Nanoluc-tagged human full …; assay: FRET or BRET; NanoBRET tracer titration, apparent KD; 39 pM - 2.5 μM tracer titrated to HCT116 cells transfected with SPSB2-NanoLuc and permeabilized with 25 μM digitonin; settings: one partner purified
# [10] = target: T3, C-terminally Nanoluc-tagged human full …; assay: FRET or BRET; NanoBRET tracer titration, apparent KD; 39 pM - 2.5 μM tracer titrated to intact HCT116 cells transfected with SPSB2-NanoLuc; 2 h at 37 °C; settings: one partner purified
molecule,measurement,setting,value
CC[C@H](C)[C@H](NC(=O)[C@H](CC(=O)O)NC(=O)[C@@H](NC(=O)CNC(=O)[C@H](CO)NC(=O)CNC(=O)[C@@H]1CSSC[C@H](NC(=O)CCOCCOCCOCCOCCN)C(=O)N[C@@H](Cc2ccc(O)cc2)C(=O)NCC(=O)N[C@@H](CCCNC(=N)N)C(=O)N[C@@H](CCCCN)C(=O)N[C@@H](CCCCN)C(=O)N[C@@H](CCCNC(=N)N)C(=O)N[C@@H](CCCNC(=N)N)C(=O)N[C@@H](CCC(N)=O)C(=O)N[C@@H](CCCNC(=N)N)C(=O)N[C@@H](CCCNC(=N)N)C(=O)N[C@@H](CCCNC(=N)N)C(=O)N1)C(C)C)C(=O)N[C@@H](CC(N)=O)C(=O)N[C@@H](CC(N)=O)C(=O)N[C@@H](CC(N)=O)C(=O)O [Cyclic TAT peptide] (H-[PEG4]CYGRKKRRQRRRCGSGVDINNN-OH; disulfide 2-14; N-terminus and C-terminus assumed),ΔTm at 50 µM,[1],8.1 ± 0.1 °C
same,Mean Tm,[1],51.4 ± 0.1 °C
same,"Impact on cell viability (CellTiter-Glo, qualitative)",[2],no impact on cell viability at any tested concentration
same,SPR binding behaviour (qualitative),[3],non 1:1 binding interaction
CC[C@H](C)[C@H](NC(=O)[C@H](CC(=O)O)NC(=O)[C@@H](NC(=O)CNC(=O)[C@H](CO)NC(=O)CNC(=O)[C@@H]1CSSC[C@H](NC(=O)CCOCCOCCOCCOCCNC(=O)CCC2=[N+]3C(=Cc4ccc(-c5ccc[nH]5)n4[B-]3(F)F)C=C2)C(=O)N[C@@H](Cc2ccc(O)cc2)C(=O)NCC(=O)N[C@@H](CCCNC(=N)N)C(=O)N[C@@H](CCCCN)C(=O)N[C@@H](CCCCN)C(=O)N[C@@H](CCCNC(=N)N)C(=O)N[C@@H](CCCNC(=N)N)C(=O)N[C@@H](CCC(N)=O)C(=O)N[C@@H](CCCNC(=N)N)C(=O)N[C@@H](CCCNC(=N)N)C(=O)N[C@@H](CCCNC(=N)N)C(=O)N1)C(C)C)C(=O)N[C@@H](CC(N)=O)C(=O)N[C@@H](CC(N)=O)C(=O)N[C@@H](CC(N)=O)C(=O)O [Cyclic TAT tracer] ({X1-PEG4}-CYGRKKRRQRRRCGSGVDINNN-OH; disulfide 1-13),Concentration leading to reduced cell survival (CellTiter-Glo),[2],above 10 μM
CC[C@H](C)[C@H](NC(=O)[C@H](CC(=O)O)NC(=O)[C@@H](NC(=O)CNC(=O)[C@H](CO)NC(=O)CNC(=O)[C@H](CC(=O)O)NC(=O)CNC(=O)[C@H](CCCNC(=N)N)NC(=O)CCOCCOCCOCCOCCN)C(C)C)C(=O)N[C@@H](CC(N)=O)C(=O)N[C@@H](CC(N)=O)C(=O)N[C@@H](CC(N)=O)C(=O)O [Linear RGD peptide] (H-[PEG4]RGDGSGVDINNN-OH; N-terminus and C-terminus assumed),ΔTm at 50 µM,[1],10.9 ± 0.2 °C
same,Mean Tm,[1],54.1 ± 0.2 °C
same,koff,[3],0.032 s⁻¹
same,kon,[3],200000 M⁻¹ s⁻¹
"CC[C@H](C)[C@H](NC(=O)[C@H](CC(=O)O)NC(=O)[C@H](CCCCN)NC(=O)[C@H](CCC(=O)O)NC(=O)[C@H](CCC(=O)O)NC(=O)[C@@H](N)CCCCN)C(=O)N[C@@H](CC(N)=O)C(=O)N[C@@H](CC(N)=O)C(=O)N[C@@H](CC(N)=O)C(=O)N[C@H](C(=O)N[C@@H](CCCCN)C(=O)N[C@@H](CCCCN)C(=O)N[C@H](C(=O)O)[C@@H](C)O)C(C)C [iNOS peptide, reference compound] (H-KEEKDINNNVKKT-OH)",ΔTm at 50 µM,[1],14.1 ± 0.1 °C
same,koff,[3],0.0024 s⁻¹
same,kon,[3],2.9e+06 M⁻¹ s⁻¹
PEG4-YGRKKRRQRRRGSGVDINNN [Linear TAT peptide],ΔTm,[1],10.6 ± 0.1 °C
same,Mean Tm,[1],53.8 ± 0.1 °C
same,SPR binding behaviour (qualitative),[3],non 1:1 binding interaction
[PEG4′]RGDGSGVDINNN [linear RGD peptide],Kd,[4],162 nM
same,koff,[4],0.032 s⁻¹
same,kon,[4],200000 M⁻¹ s⁻¹
same,ΔTm,[5],10.9 °C
B1,EC50,[6],~386 nM
same,EC50,[7],~200 nM
KEEKDINNNVKKT [iNOS peptide],Kd,[4],0.8 nM
same,koff,[4],0.0024 s⁻¹
same,kon,[4],2.9e+06 M⁻¹ s⁻¹
same,ΔTm,[5],14.1 °C
[PEG4′]CYGRKKRRQRRRCGSGVDINNN (disulfide 2-14) [cyclic TAT peptide],ΔTm,[8],8.1 °C
[PEG4′]YGRKKRRQRRRGSGVDINNN [linear TAT peptide],ΔTm,[8],10.6 °C
B2,Kd,[9],346 nM
same,Kd,[10],86 nM

# Reference: publication PMC12930380, “Overcoming Ligand Discovery Challenges: Developing Peptide-Based Tracers for SPSB2” (ACS Chemical Biology, 2025)
